One assay concerns the target MMP14 (human) (UniProt P50281). Briefly: co-IP with anti-FLAG, C-FLAG B3GNT2, mass spectrometry.
The next assay deals with PRRC2C (human) (UniProt Q9Y520). Described as above.
The next assay concerns the target T1, YTHDF2 (human) (UniProt Q9Y5A9).
T1 sequence (looked up): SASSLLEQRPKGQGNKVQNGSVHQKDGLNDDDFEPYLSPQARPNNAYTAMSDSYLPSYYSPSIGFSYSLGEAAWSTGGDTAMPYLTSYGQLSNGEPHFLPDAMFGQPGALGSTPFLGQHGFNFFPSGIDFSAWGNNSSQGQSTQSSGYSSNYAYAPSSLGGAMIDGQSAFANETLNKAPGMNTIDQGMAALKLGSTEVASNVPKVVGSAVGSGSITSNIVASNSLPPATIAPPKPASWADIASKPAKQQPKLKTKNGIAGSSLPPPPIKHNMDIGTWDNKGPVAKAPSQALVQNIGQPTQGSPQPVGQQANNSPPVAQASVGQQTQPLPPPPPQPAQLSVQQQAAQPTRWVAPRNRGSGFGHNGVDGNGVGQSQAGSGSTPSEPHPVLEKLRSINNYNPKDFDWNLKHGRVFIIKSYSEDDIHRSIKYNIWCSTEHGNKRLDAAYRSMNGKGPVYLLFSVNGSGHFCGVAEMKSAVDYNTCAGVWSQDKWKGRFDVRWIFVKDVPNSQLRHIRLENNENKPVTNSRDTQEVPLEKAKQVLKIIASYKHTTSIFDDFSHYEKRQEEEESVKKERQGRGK
Described as above.

In a further assay the target is DHX9 (human) (UniProt Q08211). The description is as above.
Another assay addresses CPT1A (human) (UniProt P50416). Described as above.
For the next assay, the target named is PPFIBP1 (human) (UniProt Q86W92). The assay is described as above.
The next assay concerns the target SERPINB3 (human) (UniProt P29508). Described as above.
The target in another assay is GEMIN4 (human) (UniProt P57678). The assay is described as above.
Another assay has as its target RPL8 (human) (UniProt P62917). The assay is described as above.
The target of a further assay is NAP1L1 (human) (UniProt P55209). Described as above.
Sequence of NAP1L1 (human) (P55209 2-388 limits assumed): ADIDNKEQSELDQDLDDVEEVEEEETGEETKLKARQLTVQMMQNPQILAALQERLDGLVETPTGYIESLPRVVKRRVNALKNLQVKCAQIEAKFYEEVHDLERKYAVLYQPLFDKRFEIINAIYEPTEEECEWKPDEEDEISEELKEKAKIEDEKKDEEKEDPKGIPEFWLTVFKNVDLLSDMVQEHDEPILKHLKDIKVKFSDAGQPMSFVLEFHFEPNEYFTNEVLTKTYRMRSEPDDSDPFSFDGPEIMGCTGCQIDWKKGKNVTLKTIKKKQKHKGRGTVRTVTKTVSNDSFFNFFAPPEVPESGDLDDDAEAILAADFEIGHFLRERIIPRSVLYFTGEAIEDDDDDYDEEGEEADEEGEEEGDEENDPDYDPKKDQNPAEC
The target in the next assay is CCT3 (human) (UniProt P49368). Described as above.
Sequence of CCT3 (human) (P49368 whole entry): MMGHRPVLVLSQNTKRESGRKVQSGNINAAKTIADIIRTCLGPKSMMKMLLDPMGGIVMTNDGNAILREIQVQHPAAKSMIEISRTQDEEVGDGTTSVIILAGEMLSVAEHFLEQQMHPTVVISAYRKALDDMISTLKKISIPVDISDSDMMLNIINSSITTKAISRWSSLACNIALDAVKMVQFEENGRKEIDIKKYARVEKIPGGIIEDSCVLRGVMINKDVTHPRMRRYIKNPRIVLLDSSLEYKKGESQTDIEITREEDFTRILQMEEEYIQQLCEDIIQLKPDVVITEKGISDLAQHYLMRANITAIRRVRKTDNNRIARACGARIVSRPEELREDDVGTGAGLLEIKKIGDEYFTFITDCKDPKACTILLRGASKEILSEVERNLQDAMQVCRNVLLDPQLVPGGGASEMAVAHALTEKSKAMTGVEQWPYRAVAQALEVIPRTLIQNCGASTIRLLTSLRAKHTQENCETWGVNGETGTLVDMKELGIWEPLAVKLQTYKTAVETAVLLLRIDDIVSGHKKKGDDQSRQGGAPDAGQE
The target of another assay is IL13RA2 (human) (UniProt Q14627). The assay is described as above.
For a further assay, the target named is RHOT2 (human) (UniProt Q8IXI1). Described as above.
Sequence of RHOT2 (human) (Q8IXI1 whole entry): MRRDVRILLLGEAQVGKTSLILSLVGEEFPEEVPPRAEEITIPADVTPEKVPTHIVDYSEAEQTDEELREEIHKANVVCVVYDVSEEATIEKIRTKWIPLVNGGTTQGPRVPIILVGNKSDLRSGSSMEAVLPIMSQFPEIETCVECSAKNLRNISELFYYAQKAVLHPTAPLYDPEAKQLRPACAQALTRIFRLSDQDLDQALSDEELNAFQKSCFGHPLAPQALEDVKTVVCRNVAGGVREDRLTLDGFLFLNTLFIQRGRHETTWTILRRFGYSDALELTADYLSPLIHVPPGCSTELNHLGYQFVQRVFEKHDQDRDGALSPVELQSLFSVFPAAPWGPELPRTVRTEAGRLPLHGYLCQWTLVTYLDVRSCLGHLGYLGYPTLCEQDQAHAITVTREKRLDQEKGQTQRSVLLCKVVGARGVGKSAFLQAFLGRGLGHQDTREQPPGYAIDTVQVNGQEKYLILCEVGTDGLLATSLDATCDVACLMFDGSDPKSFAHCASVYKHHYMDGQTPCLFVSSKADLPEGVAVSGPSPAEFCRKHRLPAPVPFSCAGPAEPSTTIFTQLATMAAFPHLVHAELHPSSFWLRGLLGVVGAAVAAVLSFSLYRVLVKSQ
The target of a further assay is COPA (human) (UniProt P53621). The description is as above.
The target in another assay is PLOD1 (human) (UniProt Q02809). The assay is described as above.
The target in a further assay is RPL28 (human) (UniProt P46779). The description is as above.
The next assay has as its target LUC7L3 (human) (UniProt O95232). Described as above.
The target in the next assay is RPL6 (human) (UniProt Q02878). The assay is described as above.
A further assay has as its target RACK1 (human) (UniProt P63244). The assay is described as above.
A further assay concerns the target SLC27A4 (human) (UniProt Q6P1M0). The assay can be described thus: co-IP with control IgG, mass spectrometry; lysate of cells with C-FLAG B3GNT2.
The next assay deals with ILF3 (human) (UniProt Q12906). The description is as above.
For another assay, the target named is DNAJB11 (human) (UniProt Q9UBS4). The description is as above.
Sequence of DNAJB11 (human) (Q9UBS4 23-358 limits assumed): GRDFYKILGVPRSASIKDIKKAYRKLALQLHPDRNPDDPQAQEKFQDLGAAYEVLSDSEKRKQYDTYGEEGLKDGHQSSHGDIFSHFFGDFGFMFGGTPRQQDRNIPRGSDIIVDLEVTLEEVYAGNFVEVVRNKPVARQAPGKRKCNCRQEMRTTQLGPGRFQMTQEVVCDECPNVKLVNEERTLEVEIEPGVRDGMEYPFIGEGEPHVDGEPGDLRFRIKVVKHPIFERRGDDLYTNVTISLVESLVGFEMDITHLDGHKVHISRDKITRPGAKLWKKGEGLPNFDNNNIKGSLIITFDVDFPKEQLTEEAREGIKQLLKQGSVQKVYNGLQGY
A further assay concerns the target MAGT1 (human) (UniProt Q9H0U3). The description is as above.
In another assay the target is MYO1C (human) (UniProt O00159). The assay is described as above.
The next assay concerns the target SLC25A5 (human) (UniProt P05141). Described as above.
Another assay concerns the target EPRS (human) (UniProt P07814). Described as above.
The next assay deals with CCT7 (human) (UniProt Q99832). Described as above.
The target in the next assay is PJA2 (human) (UniProt O43164). Described as above.
For another assay, the target named is CD70 (human) (UniProt P32970). The assay is described as above.
The target in the next assay is STAU2 (human) (UniProt Q9NUL3). The description is as above.
Sequence of STAU2 (human) (Q9NUL3 whole entry): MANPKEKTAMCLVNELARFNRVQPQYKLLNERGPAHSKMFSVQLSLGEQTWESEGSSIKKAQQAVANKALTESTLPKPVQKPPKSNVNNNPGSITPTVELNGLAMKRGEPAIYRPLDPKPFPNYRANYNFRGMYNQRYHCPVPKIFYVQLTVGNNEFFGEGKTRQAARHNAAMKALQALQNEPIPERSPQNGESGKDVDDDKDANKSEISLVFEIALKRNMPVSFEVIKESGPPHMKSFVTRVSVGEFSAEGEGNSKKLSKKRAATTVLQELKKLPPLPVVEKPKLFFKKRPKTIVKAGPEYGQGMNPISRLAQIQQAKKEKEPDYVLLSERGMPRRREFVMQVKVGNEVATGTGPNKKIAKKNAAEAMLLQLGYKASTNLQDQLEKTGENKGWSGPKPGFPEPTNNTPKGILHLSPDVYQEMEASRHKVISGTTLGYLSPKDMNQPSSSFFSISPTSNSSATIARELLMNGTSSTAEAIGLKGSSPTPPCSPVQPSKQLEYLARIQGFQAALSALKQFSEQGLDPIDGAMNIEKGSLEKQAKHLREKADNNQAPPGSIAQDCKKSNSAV
A further assay deals with TOR1AIP2 (human) (UniProt Q8NFQ8). The assay is described as above.
The target of the next assay is RARS (human) (UniProt P54136). Described as above.

For two substances, co-IP/MS count, C-term flag and co-IP mass spectrometry count results are on record in patent publication US20240261333A1, “NOVEL TARGETS FOR ENHANCING ANTI-TUMOR IMMUNITY” (THE BROAD INSTITUTE, INC., priority 2021, published 2024).

Sequence of SERPINB3 (human) (P29508 whole entry): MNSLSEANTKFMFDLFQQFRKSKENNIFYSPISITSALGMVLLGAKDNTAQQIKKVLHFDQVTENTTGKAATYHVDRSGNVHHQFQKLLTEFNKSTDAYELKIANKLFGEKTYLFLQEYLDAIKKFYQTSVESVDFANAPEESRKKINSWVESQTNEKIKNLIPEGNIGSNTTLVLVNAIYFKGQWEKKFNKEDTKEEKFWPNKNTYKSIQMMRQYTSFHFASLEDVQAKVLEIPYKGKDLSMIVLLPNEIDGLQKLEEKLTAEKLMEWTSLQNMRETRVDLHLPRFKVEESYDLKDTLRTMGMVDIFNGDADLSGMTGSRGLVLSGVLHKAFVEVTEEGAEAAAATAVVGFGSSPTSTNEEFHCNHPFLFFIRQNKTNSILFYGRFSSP
Sequence of EPRS (human) (P07814 whole entry): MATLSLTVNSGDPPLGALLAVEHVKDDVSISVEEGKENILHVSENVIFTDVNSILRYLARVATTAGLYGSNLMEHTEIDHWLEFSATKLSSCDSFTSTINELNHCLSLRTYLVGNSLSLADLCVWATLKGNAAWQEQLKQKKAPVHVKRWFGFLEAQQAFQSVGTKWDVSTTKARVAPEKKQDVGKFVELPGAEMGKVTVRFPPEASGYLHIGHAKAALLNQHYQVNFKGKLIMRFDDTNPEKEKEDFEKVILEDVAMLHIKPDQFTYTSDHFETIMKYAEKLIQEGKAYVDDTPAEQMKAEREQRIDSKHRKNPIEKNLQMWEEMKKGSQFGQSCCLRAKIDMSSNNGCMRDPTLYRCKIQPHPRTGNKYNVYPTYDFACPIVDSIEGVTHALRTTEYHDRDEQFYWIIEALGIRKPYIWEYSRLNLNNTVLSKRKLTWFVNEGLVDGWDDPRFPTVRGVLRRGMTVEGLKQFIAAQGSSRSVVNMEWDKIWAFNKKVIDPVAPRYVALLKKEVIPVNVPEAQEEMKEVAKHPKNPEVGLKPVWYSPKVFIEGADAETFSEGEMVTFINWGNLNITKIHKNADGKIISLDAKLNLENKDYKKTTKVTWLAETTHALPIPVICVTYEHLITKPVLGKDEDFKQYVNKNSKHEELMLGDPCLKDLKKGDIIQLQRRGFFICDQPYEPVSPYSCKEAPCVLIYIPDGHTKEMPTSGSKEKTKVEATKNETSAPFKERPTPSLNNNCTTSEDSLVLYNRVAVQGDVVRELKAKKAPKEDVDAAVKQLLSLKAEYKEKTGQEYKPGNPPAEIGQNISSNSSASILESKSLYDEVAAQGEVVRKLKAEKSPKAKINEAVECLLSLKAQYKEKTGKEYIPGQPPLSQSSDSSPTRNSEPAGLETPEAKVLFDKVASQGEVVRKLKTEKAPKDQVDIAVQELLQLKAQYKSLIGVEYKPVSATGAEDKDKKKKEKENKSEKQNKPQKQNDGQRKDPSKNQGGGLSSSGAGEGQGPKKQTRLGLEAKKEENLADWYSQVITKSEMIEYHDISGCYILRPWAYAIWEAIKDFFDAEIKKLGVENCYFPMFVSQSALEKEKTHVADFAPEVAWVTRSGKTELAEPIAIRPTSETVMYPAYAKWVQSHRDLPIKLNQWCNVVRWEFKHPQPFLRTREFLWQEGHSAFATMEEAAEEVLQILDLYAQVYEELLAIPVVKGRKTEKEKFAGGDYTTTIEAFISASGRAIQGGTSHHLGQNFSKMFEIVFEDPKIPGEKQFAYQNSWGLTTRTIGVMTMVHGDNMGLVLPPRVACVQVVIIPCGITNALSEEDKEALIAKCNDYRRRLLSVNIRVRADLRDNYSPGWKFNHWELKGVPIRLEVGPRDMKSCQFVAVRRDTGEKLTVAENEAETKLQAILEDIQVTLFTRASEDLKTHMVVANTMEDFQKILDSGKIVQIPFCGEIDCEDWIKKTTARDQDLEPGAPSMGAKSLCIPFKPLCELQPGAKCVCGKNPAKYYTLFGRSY
Sequence of SLC27A4 (human) (Q6P1M0 whole entry): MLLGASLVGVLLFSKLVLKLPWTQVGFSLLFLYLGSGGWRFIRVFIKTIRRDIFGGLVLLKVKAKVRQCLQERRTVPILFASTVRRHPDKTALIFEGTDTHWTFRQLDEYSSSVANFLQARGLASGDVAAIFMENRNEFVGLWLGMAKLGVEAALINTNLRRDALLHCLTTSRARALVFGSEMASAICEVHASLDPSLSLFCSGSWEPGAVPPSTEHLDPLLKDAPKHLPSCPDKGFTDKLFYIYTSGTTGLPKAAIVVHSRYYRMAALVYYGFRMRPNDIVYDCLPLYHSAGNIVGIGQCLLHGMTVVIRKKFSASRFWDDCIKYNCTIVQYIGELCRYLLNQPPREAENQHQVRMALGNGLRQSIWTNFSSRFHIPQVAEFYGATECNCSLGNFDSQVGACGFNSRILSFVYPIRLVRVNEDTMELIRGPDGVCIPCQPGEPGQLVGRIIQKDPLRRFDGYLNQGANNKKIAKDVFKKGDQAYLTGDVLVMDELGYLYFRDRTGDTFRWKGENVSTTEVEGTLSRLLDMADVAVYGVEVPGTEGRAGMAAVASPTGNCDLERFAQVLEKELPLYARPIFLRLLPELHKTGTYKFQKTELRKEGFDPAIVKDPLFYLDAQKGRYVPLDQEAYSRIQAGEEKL

Regarding “C-terminal FLAG tagged B3GNT2 (from UniProt Q9NY97 1-397) (enzyme)”, the co-IP/MS count, C-term flag with MMP14 (human) worked out at 2; with PRRC2C (human), 15; in the assay with CPT1A (human), 2; in the assay with NAP1L1 (human) it was 4; with COPA (human), 2; with PLOD1 (human), 4. The co-IP/MS count, C-term flag in the assay with LUC7L3 (human) stood at 3; in the assay with RPL6 (human) it was 20. Also, the co-IP mass spectrometry count turned out to be 4 with YTHDF2 (human); 5 in the assay with DHX9 (human); 3 with PPFIBP1 (human); 9 in the assay with SERPINB3 (human); 5 in the assay with GEMIN4 (human); 15 with RPL8 (human). The co-IP mass spectrometry count with CCT3 (human) amounted to 5; with IL13RA2 (human) it was 2; in the assay with RHOT2 (human), 2; in the assay with RPL28 (human), 16; with RACK1 (human), 3.

For “IgG control (Millipore Sigma 12-371) (antibody)”, the co-IP mass spectrometry count was 0 with SLC27A4 (human); 0 with ILF3 (human); 0 in the assay with DNAJB11 (human); 0 with MAGT1 (human); 0 in the assay with MYO1C (human); 3 with SLC25A5 (human). Further, the co-IP mass spectrometry count with EPRS (human), with CCT7 (human), with PJA2 (human), in the assay with CD70 (human), with STAU2 (human) and in the assay with TOR1AIP2 (human) was 0 throughout. The same substance yielded a co-IP mass spectrometry count with RARS (human) of 0.
